The results in this text go back to patent US5747449A (Corvas International, Inc., priority 1993, dated 1998).

Factor Xa, sequence (P00742 235-488 limits assumed): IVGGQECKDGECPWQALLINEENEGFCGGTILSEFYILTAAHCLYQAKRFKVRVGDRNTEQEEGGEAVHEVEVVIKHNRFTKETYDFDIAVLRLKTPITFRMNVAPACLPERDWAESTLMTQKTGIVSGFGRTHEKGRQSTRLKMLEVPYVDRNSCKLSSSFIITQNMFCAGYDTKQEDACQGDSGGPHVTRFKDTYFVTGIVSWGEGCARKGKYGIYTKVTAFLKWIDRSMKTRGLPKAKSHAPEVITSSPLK
Factor Xa, sequence (P00742 41-179 partner limits assumed): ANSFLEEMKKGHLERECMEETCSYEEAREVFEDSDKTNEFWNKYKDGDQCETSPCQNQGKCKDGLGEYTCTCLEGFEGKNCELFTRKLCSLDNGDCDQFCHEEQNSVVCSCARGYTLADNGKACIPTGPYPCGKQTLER

The assay concerns the target Factor Xa (Homo sapiens, UniProt P00742). The experiment in a line: Factor Xa amidolytic assay (chromogenic substrate). Particulars: mutants produced in E. coli; read-out: Ki (nM), inhibition constant for Factor Xa. The class given is biochemical. The method, then:
Trypsin, Factor Xa, thrombin, Factor XIIa and plasmin amidolytic assays […]
Briefly, the following were added to a 96-well microtiter plate well (see Table below):
50 μl inhibitor (various concentrations as required, diluted in TESA);
50 μl protease (suitable concentration, diluted in TBSA)
The plate was incubated at room temperature for 30 minutes or for 2 hours (Factor Xa); and 50 μl chromogenic substrate was added (as required, diluted in water). The initial rate was measured at […] during 10-30 minutes at room temperature.
To determine the inhibition constants, the initial rate (vi) was measured at various inhibitor ([It ]) and substrate concentrations, and the apparent inhibition constant (Ki) was determined by fitting the data obtained at each substrate concentration with the following equation: […]
vi /vo ={([Et ]-[It ]-Ki^*) +[([It […]
where vo is the uninhibited initial rate and [Et ] is the total enzyme concentration. Extrapolation of Ki^* values to zero substrate concentrations yields a value for the real inhibition constant.
As a reminder, the Ki is a dissociation constant, usually derived from enzyme kinetics or from competition with a known ligand. With “5L68: BPTI with substitutions 11Ser 13Leu 15Arg 17Leu 18His 19Lys 34Tyr 39Phe 46Glu”, the Ki was 1.5 nM.

In the case of “5L65: BPTI with substitutions 11Ser 13Leu 15Arg 17Leu 18His 19Lys 34Tyr 39Tyr 46Glu”, the Ki is 5 nM.

Turning to “5L69: BPTI with substitutions 11Pro 13Ile 15Arg 17Leu 18His 19Lys 34Tyr 39Met 46Glu”, the Ki was found to be 5 nM.

With “5L84: BPTI with substitutions 11Glu 13Leu 15Arg 17Leu 18His 19Lys 34Tyr 39Phe 46Glu”, the Ki came out at 2 nM.

For “3L60: BPTI with substitutions 13Ile 15Arg 17Tyr 18Tyr 19Lys 39Leu 46Glu”, the Ki worked out at 4 nM.

For “5L48: BPTI with substitutions 11Glu 13Trp 15Arg 17Leu 18His 19His 34Ile 39Gly 46Glu”, the Ki amounted to 4 nM.

Regarding “3L55: BPTI with substitutions 13Ile 15Arg 17Ala 18Phe 19Asn 39Leu 46Glu”, the Ki was found to be 5 nM.
